Results taken from paper PMC5832032, “Structural Basis for pH-Dependent Oligomerization of Dihydropyrimidinase from Pseudomonas aeruginosa PAO1” (Bioinorganic Chemistry and Applications, 2018).
Where “and” joins values, the source holds several entries; their conditions need not be identical. Equal entries are not always repeated.

Target: the molecule itself
Assay: SEC; Superdex 200 prep grade, purified protein 5 mg/mL in Buffer C (20 mM MES, 100 mM NaCl, pH 5.9), 0.5 mL/min; masses estimated against standard proteins; dimers and tetramers coexist

B1: Pseudomonas aeruginosa PAO1 dihydropyrimidinase (enzyme)
chain: MSLLIRGATVVTHEESYRADVLCANGLIQAIGENLETPSGCDVLDGGGQYLMPGGIDPHTHMQLPFMGTVASEDFFSGTAAGLAGGTTSIIDFVIPNPRQSLLEAFHTWRGWAQKSAADYGFHVAITWWSDEVAREMGELVAQHGVNSFKHFMAYKNAIMAADDTLVASFERCLELGAVPTVHAENGELVFHLQQKLLAQGLTGPEAHPLSRPPQVEGEAASRAIRIAETLGTPLYLVHISSREALDEIAYARAKGQPVYGEVLAGHLLLDDSVYRHPDWATAAGYVMSPPFRPVEHQEALWRGLQSGNLHTTATDHCCFCAEQKAMGRDDFSKIPNGTAGIEDRMALLWDAGVNSGRLSMHEFVALTSTNTAKIFNLFPRKGAIRVGADADLVLWDPQGSRTLSAATHHQRVDFNIFEGRTVRGIPSHTISQGKLLWAAGDLRAEPGAGRYVERPAYPSVYEVLGRRAERQRPVAVER
modifications: carboxylated lysine in the active site (position not given)
notes: dihydropyrimidinase of Pseudomonas aeruginosa PAO1; two zinc ions per monomer in the active site; also called P. aeruginosa dihydropyrimidinase; pseudomonal dihydropyrimidinase
For B1, the “stoichiometry N” value was 2 and 4.
